# Changes are numbered by the printed parent chain.
# B1: ADI-14459 (antibody, V domains shown)
# VH: QVQLVQSGGGLVKPGGSLRLSCAASGFTFSNAWMSWVRQAPGKGLDWVGRIKTKADGGTRDYAAPVKGRFTISRDDSENTLYLQMTSLKTEDTGVYYCSTGPPYKYHDSTGYSVVDYWGQGTLVTVSS
# VL: SYELTQPPSASGTPGQRVTISCSGGSSNIGSDYVYWYQQLPGTAPKLLIYGSSQRPSGVPDRFSGSQSGTSASLAISGLRSEDEADYYCAMWDDSLNGPVFGGGTKLTVL
# notes: full-length IgG (yeast-expressed); also called Antibody Number 22; Ab# 22
# B2: ADI-14447 (antibody, V domains shown)
# VH: QVQLVQSGAEMKKPGSSVTVSCKASGVPFTSYTYSWVRQAPGQGLEWMGRVLPVIGSAKYPQKFQGTVTITADKSTSTIYLQLSSLRPEDTAIYFCAGSLLAGYDREFDSWGQGTLVTVSS
# VL: DIQMTQSPSSLSASVGDRITITCRASQGISNWLAWYQQKPGKAPKSLIYEASTLQSGVSSRFSGSGSGTHFTLTIASLQPEDFATYYCQQYYIYPLTFGGGTKLEIK
# notes: full-length IgG (yeast-expressed); also called Antibody Number 10; Ab# 10
# B3: ADI-14466 (antibody, V domains shown)
# VH: QVQLVQSGAEAKKPGEPLRISCKGSGYTFSSYWISWVRQRPGERLEWMGRIDPSDSYAYSSPSFQGHVTFSADKSSNTAFLQWSSLQASDTAIYYCARHKENYDFWDFWGQGTMVTVSS
# VL: ETTLTQSPDSLAVSLGERATINCRSSQPILFNPINKLSLAWYQLKPGQPPKLLISWASTREPGVPDRFNGSGSGTVFTLTISSLQPEDVAVYVCQQYFTSTFFGPGTKVEIK
# notes: full-length IgG (yeast-expressed); also called Antibody Number 29; Ab# 29
# B4: ADI-14457 (antibody, V domains shown)
# VH: QVTLKESGPALVRPKQTLTLTCSFSGFSLDTQRTGVNWIRQSPGKALEWLARIDWDGNIYSSTSVRTKLSISKGTSKNQVVLTMTDVDPVDTATYYCARTLYYTSGGYYLNLFDYWGQGTLVTVSS
# VL: EIVMTQSPPSLSASVGDRVTITCRASQTIPSYVNWYQQISGKAPRLLIYAASLLQSGVPSRFSGSGSGTEFSLTISGLRPEDFGTYYCQQSYSSTPTFGQGTKVEIK
# notes: full-length IgG (yeast-expressed); also called Antibody Number 20; Ab# 20
# B5: ADI-14484 (antibody, V domains shown)
# VH: B4 VH
# VL: B4 VL with K103R, V104L
# notes: full-length IgG (yeast-expressed); also called Antibody Number 45; Ab# 45
# B6: ADI-14440 (antibody, V domains shown)
# VH: QVQLVQSGAEVKKPGSSVKVSCKASGGTINNVAISWLRQAPGQGLEWLGGNIPGFGKVRYSQQFETRLTLTADVSSDTAYMVLTSLRSEDTAVYYCAIIDPQLCTRASCFWVNWLDPWGQGTTVTVSS
# VL: DIVMTQSPGTLSVSPGESAALSCGASESILSDSLAWYQHKPGQAPRLLIYGASSRAAGIPDRFSGSGSGTDFTLTISRLEPEDFAVYFCQQFGALPITFGQGTRLEIK
# notes: full-length IgG (yeast-expressed); also called Antibody Number 3; Ab# 3
# B7: ADI-14458 (antibody, V domains shown)
# VH: QVQLVESGGGLVKPGGSLRLSCAASGFIFSNAWMSWVRQSPGKGLEWVGRIKTKTEGATTDHAAPLKGRFTISRDDSRNTLYLQMDSLTTEDTAVYFCTTGPPYSYFDSTGYSIVDYWGQGTLVTVSS
# VL: SYELTQPPAASGTPGQRVTISCSGSSSNIGSEYVLWYQQVPGTAPKLLIYNSHQRPSGVPDRISGSRSGTSASLAISGLRSEDEAHYYCASWDDSLSGPVFGGGTQLTVL
# notes: full-length IgG (yeast-expressed); also called Antibody Number 21; Ab# 21
# B8: ADI-14460 (antibody, V domains shown)
# VH: QVQLQQWGAGLLKPSETLSLSCTVSGGVFGNYFWSWVRQAPGKGLEWIGEINQIGTTNYSPSASLKSRVTISVDPSRNQFSLSLRSVTAADTARYYCTRSETSDYFDSSGYAFHIWGEGTMVTVSS
# VL: LPVLTQPASVSGSPGQSITISCSGISSDGGRYNYVSWYQQHPGKAPKLLIYDDSNWPLGVSHRFSGSKSGNTASLTISGLRAEDEADYYCGSYTDTNRLFGGGTQLTVL
# notes: full-length IgG (yeast-expressed); also called Antibody Number 23; Ab# 23
# B9: ADI-14453 (antibody, V domains shown)
# VH: QITLKESGPTVVKPTQTLTLTCTFSGFSLNTRGMGVAWIRQPPGGALEWLALVDWDDDKRYSPSLRSRLTITKDTSKNQVLFTMTTMDPADTATYYCAHIGLYDRGGYYLFYFDFWGQGTLVTVSS
# VL: DIVLTQSPSSLSASVGDRVTITCRASQSIASYVNWFQQKPGKAPVLLMFASSILQSGVPPRFRGSGSGTDFTLTITSLQPEDFATYYCQHTYTTPYIFGRGTKVEIK
# notes: full-length IgG (yeast-expressed); also called Antibody Number 16; Ab# 16
# B10: ADI-14454 (antibody, V domains shown)
# VH: QVQLVQSGPTLVKPTQTLTLTCTFSGFSLSTRGVGVGWIRQPPGKALECLGFTYWDGDQFHSPSLKNRLTITKDTSKNQVVLRMTNMDPVDTATYFCVHSDLYDSGGYYLYYFDYWGQGTLVTVSS
# VL: DIQMTQSPSSLSASVGDRVTITCRASQTIASYLNWYQQRPGEAPKLLIYAASSLQSGVSSRFSGRGSGTDFTLTINILQPEDLATYFCQQAYSAPYTFGQGTKVEIK
# notes: full-length IgG (yeast-expressed); also called Antibody Number 17; Ab# 17
# B11: ADI-14439 (antibody, V domains shown)
# VH: QVQLVQSGAEVKKPGSSVRVSCRASGVTLTTVAVNWVRQVPGQGPEWIGGILVGLGKVRLAQKFENRATLRADTSSNTAYMELSGLRFEDTAVYYCAIIDPQDCTAASCFWVNWLDPWGQGTLVTVSS
# VL: EIVLTQSPGTLTLSPGETATLSCRASQSVLSGYLAWYQQKPGQAPRLLIYAASTRATDIPARFTGSGSATDFTLTISRLEPQDFAVYYCQQYGSAPITFGQGTRLEIK
# notes: full-length IgG (yeast-expressed); also called Antibody Number 2; Ab# 2
# B12: ADI-14449 (antibody, V domains shown)
# VH: EVQLVESGGDLVKPGGSLRLSCEGSGFIFPNAWMSWVRQAPGKGLEWVGRIKSNTDGGTTDYGAPVKGRFTISRDDSTNTMYLHMNSLKTEDTAVYFCSTGPPYKYFDETGYSVVDYWGQGTLVTVSS
# VL: SYELTQPPSASGTPGQRVIISCSGSTSNSGYNYFYWYQQRPGTAPKLLIYGSDQRPSGVPDRFSGSQSGPSASLAISGLRSEDEAHYYCAAWDDNLSGPVFGGGTKLTVL
# notes: full-length IgG (yeast-expressed); also called Antibody Number 12; Ab# 12
# B13: ADI-14452 (antibody, V domains shown)
# VH: QVQLVQSGAEVKKPGSSVKVSCEASGDTFTSYAVIWVRQAPGQGLEWMGSIIPIFQTINYAPKFQGRVTLSADGSTRTVYMELGSLRSEDTAIYFCATKRYCTSPSCHGLWYFNLWGRGTLVTVSS
# VL: DIVMTQSPLSLPVTPGEPASISCRSSKSLLDSDDGNTYLDWYLQKPGQSPQILIYMLSHRASGVPDRFSGSGSGTDFTLKISRVEAEDVGVYYCMQRVEYPYSFGQGTKVEIK
# notes: full-length IgG (yeast-expressed); also called Antibody Number 15; Ab# 15
# Biological target: T1, RSV F ectodomain stabilized in the postfusion conformation (F ΔFP), subtype A (Respiratory syncytial virus subtype A, UniProt P03420 26-109; P03420 147-524)
# T1 construct: extracellular domain; trimer; furin-cleaved; also called Postfusion subtype A
# Experiment: BLI, IgG on AHQ sensor, 100 nM antigen
row,Binder,Kd [nM]
1,B1,0.264
2,B2,0.339
3,B3,0.247
4,B4,0.38
5,B5,0.389
6,B6,1.45
7,B7,0.196
8,B8,2.86
9,B9,0.261
10,B10,0.297
11,B11,5.16
12,B12,0.204
13,B13,0.217

# Biological target: T2, RSV F ectodomain stabilized in the postfusion conformation (F ΔFP), subtype B (Respiratory syncytial virus subtype B, UniProt P13843 26-109; P13843 147-524)
# T2 construct: extracellular domain; trimer; also called Postfusion subtype B; postF subtype B
# Experiment: BLI, IgG on AHQ sensor, 100 nM antigen
row,Binder,Kd [nM]
1,B1,0.183
2,B2,0.271
3,B3,0.169
4,B4,0.461
5,B5,0.394
6,B6,2.39
7,B7,0.126
8,B8,2.56
9,B9,0.228
10,B10,0.483
11,B11,16.2
12,B12,0.462
13,B13,0.139

# Biological target: RSV F protein of recombinant mKate-RSV, subtype A (strain A2) (Respiratory syncytial virus subtype A …, UniProt P03420 26-574)
# Experiment: cell-based or functional assay
row,Binder,Neut IC50 subtype A [µg/mL]
1,B1,0.396
2,B2,0.143
3,B3,0.144
4,B4,0.2
5,B5,0.448
6,B6,> 10
7,B7,0.161
8,B8,0.102
9,B9,> 10
10,B10,0.23
11,B11,> 10
12,B12,0.193
13,B13,0.076

# Biological target: RSV F protein of recombinant mKate-RSV, subtype B (18537) (Respiratory syncytial virus subtype B …, UniProt P13843 26-574)
# Experiment: cell-based or functional assay
row,Binder,Neut IC50 subtype B [µg/mL]
1,B1,0.753
2,B2,0.372
3,B3,0.263
4,B4,0.251
5,B5,0.169
6,B6,4.18
7,B7,0.104
8,B8,0.239
9,B9,> 10
10,B10,2.54
11,B11,4.12
12,B12,0.182
13,B13,0.157

# Reference: US20250313612A1 (Adimab, published 2025)
